# Test results published in PMC10334784 (Proceedings of the National Academy of Sciences of the …, 2023).
# B1: CCL13 (ligand)
# chain: not shown
# B2: CXCL13 (ligand)
# chain: VLEVYYTSLRCRCVQESSVFIPRRFIDRIQILPRGNGCPRKEIIVWKKNKSIVCVDPQAEWIQRMMEVLRKRSSSTLPVPVFKRKIP
# B3: CCL5 (ligand)
# chain: SPYSSDTTPCCFAYIARPLPRAHIKEYFYTSGKCSNPAVVFVTRKNRQVCANPEKKWVREYINSLEMS
# B4: CCL21 (ligand)
# chain: SDGGAQDCCLKYSQRKIPAKVVRSYRKQEPSLGCSIPAILFLPRKRSQAELCADPKELWVQQLMQHLDKTPSPQKPAQGCRKDRGASKTGKKGKGSKGCKRTERSQTPKGP
# B5: CCL26 (ligand)
# chain: TRGSDISKTCCFQYSHKPLPWTWVRSYEFTSNSCSQRAVIFTTKRGKKVCTHPRKKWVQKYISLLKTPKQL
# B6: CXCL14 (ligand)
# chain: SKCKCSRKGPKIRYSDVKKLEMKPKYPHCEEKMVIITTKSVSRYRGQEHCLHPKLQSTKRFIKWYNAWNEKRRVYEE
# B7: CCL28 (ligand)
# chain: SEAILPIASSCCTEVSHHISRRLLERVNMCRIQRADGDCDLAAVILHVKRRRICVSPHNHTVKQWMKVQAAKKNGKGNVCHRKKHHGKRNSNRAHQGKHETYGHKTPY
# B8: HCoV-OC43 nucleocapsid (N) protein, 2X-StrepTag tagged (natural protein)
# chain: MSFTPGKQSSSRASSGNRSGNGILKWADQSDQVRNVQTRGRRAQPKQTATSQQPSGGNVVPYYSWFSGITQFQKGKEFEFVEGQGPPIAPGVPATEAKGYWYRHNRGSFKTADGNQRQLLPRWYFYYLGTGPHAKDQYGTDIDGVYWVASNQADVNTPADIVDRDPSSDEAIPTRFPPGTVLPQGYYIEGSGRSAPNSRSTSRTSSRASSAGSRSRANSGNRTPTSGVTPDMADQIASLVLAKLGKDATKPQQVTKHTAKEVRQKILNKPRQKRSPNKQCTVQQCFGKRGPNQNFGGGEMLKLGTSDPQFPILAELAPTAGAFFFGSRLELAKVQNLSGNPDEPQKDVYELRYNGAIRFDSTLSGFETIMKVLNENLNAYQQQDGMMNMSPKPQRQRGHKNGQGENDNISVAVPKSRVQQNKSRELTAEDISLLKKMDEPYTEDTSEI
# B9: IL27 (complex)
# chain 1: FPRPPGRPQLSLQELRREFTVSLHLARKLLSEVRGQAHRFAESHLPGVNLYLLPLGEQLPDVSLTFQAWRRLSDPERLCFISTTLQPFHALLGGLGTQGRWTNMERMQLWAMRLDLRDLQRHLRFQVLAAGFNLPEEEEEEEEEEEEERKGLLPGALGSALQGPAQVSWPQLLSTYRLLHSLELVLSRAVRELLLLSKAGHSVWPLGFPTLSPQP
# chain 2: RKGPPAALTLPRVQCRASRYPIAVDCSWTLPPAPNSTSPVSFIATYRLGMAARGHSWPCLQQTPTSTSCTITDVQLFSMAPYVLNVTAVHPWGSSSSFVPFITEHIIKPDPPEGVRLSPLAERQLQVQWEPPGSWPFPEIFSLKYWIRYKRQGAARFHRVGPIEATSFILRAVRPRARYYVQVAAQDLTDYGELSDWSLPATATMSLGK
# B10: CCL11 (ligand)
# chain: not shown
# B11: CXCL11 (ligand)
# chain: FPMFKRGRCLCIGPGVKAVKVADIEKASIMYPSNNCDKIEVIITLKENKGQRCLNPKSKQARLIIKKVERKNF
# B12: CXCL9 (ligand)
# chain: TPVVRKGRCSCISTNQGTIHLQSLKDLKQFAPSPSCEKIEIIATLKNGVQTCLNPDSADVKELIKKWEKQVSQKKKQKNGKKHQKKKVLKVRKSQRSRQKKTT
# B13: CCL25 (ligand)
# chain: QGVFEDCCLAYHYPIGWAVLRRAWTYRIQEVSGSCNLPAAIFYLPKRHRKVCGNPKSREVQRAMKLLDARNKVFAKLHHNTQTFQAGPHAVKKLSSGNSKLSSSKFSNPISSSKRNVSLLISANSGL
# Key:
# [1] = target: B8; experiment: BLI
# CXCL12α = CXCL12α (human, UniProt P48061-2 22-89); experiment: BLI
# Chain of CXCL12α (P48061 22-89): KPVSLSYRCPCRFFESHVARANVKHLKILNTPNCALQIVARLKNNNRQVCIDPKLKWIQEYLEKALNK
Binder,Kd [1],koff [1],kon [1],Kd (CXCL12α),koff (CXCL12α),kon (CXCL12α)
B1,1600 nM,0.025 s⁻¹,19000 M⁻¹ s⁻¹,,,
B2,140 nM,0.0046 s⁻¹,44000 M⁻¹ s⁻¹,,,
B3,56000 nM,0.015 s⁻¹,2100 M⁻¹ s⁻¹,,,
B4,290 nM,0.012 s⁻¹,67000 M⁻¹ s⁻¹,,,
B5,620 nM,0.014 s⁻¹,20000 M⁻¹ s⁻¹,,,
B6,580 nM,0.0063 s⁻¹,12000 M⁻¹ s⁻¹,,,
B7,27 nM,0.0015 s⁻¹,60000 M⁻¹ s⁻¹,,,
B8,,,,0.46 nM,3.7e-05 s⁻¹,62000 M⁻¹ s⁻¹
B9,55 nM,0.0024 s⁻¹,51000 M⁻¹ s⁻¹,,,
B10,1400 nM,0.021 s⁻¹,17000 M⁻¹ s⁻¹,,,
B11,730 nM,0.012 s⁻¹,18000 M⁻¹ s⁻¹,,,
B12,29 nM,0.0022 s⁻¹,82000 M⁻¹ s⁻¹,,,
B13,610 nM,0.0048 s⁻¹,8300 M⁻¹ s⁻¹,,,
